In the RNAGym collection of RNA variant scans (doi:10.1021/acssynbio.7b00057):

B1: Pistol ribozyme (parent)
chain: GGGUCGUUGUUCCAUAAUCGCGUGGAUAUGGCACGCAAGUUUCUACCGGGCACCGUAAAUGUCCGACUGGAGCCGUUCGGGCGGCUAUAAACAGACCUCAGGCCCGAAGCGUGGCGGCACCUGCCGCCGGUGGUAAAAAAGAUCGGAAGAGCACACGUCU

Variants of: B1
Experiment: aptazyme ON/OFF ratio, guanine; higher = stronger switching; co-transcriptional cleavage with and without guanine

Row | Variant | aptazyme ON/OFF ratio
1 | U7C U8C U10G C13A | 1.13
2 | U7C U8C U11G C13A | 1.24
3 | U7C U8C U11G C13G | 1.28
4 | U7C U8C U11A C12A C13A | 1.2
5 | U7C U8C U11A C12A C13U | 1.31
6 | U7C U8C U11A C12A C13G | 1.15
7 | U7C U8C U10C U11G C13U | 1.34
8 | U7C U8C U10C U11G C13A | 1.2
9 | U7C U8C U10C U11G C13G | 1.24
10 | U7C U8C U10G U11A C13A | 1.21
11 | U7C U8C U10G U11A C13G | 1.14
12 | U7C U8C U10G U11A C13U | 1.15
13 | U7C U8C G9U U10G U11G C13A | 1.1
14 | U7C U8C G9U U10G U11G C13U | 1.08
15 | U7C U8C G9U U10G U11G C13G | 1.13
16 | U7C U8C U10C U11C C12G C13U | 1.31
17 | U7C U8C U10C U11C C12G C13G | 1.3
18 | U7C U8C U10C U11C C12G C13A | 1.1
19 | U7C U8C G9U U11A C12U C13A | 1.18
20 | U7C U8C G9U U11A C12U C13U | 1.2
21 | U7C U8C G9U U11A C12U C13G | 1.12

Row | Variant | aptazyme ON/OFF ratio
22 | U7C U8C U10A U11A C13U | 1.29
23 | U7C U8C U10A U11A C13A | 1.26
24 | U7C U8C U10A U11A C13G | 1.14
25 | U7C U8C G9U U11G C12A C13U | 1.14
26 | U7C U8C G9U U11G C12A C13A | 1.19
27 | U7C U8C G9U U11G C12A C13G | 1.11
28 | U7C U8C G9U U11C C12A C13U | 1.14
29 | U7C U8C G9U U11C C12A C13A | 1.06
30 | U7C U8C G9U U11C C12A C13G | 1.04
31 | U7C U8C G9U U11A C13G | 1.07
32 | U7C U8C G9U U11A C13U | 1.15
33 | U7C U8C G9U U11A C13A | 1.17
34 | U7C U8C U10A U11G C12G | 1.41
35 | U7C U8C U10A U11G C12A | 1.13
36 | U7C U8C U10A U11G C12U | 1.25
37 | U7C U8C U10G U11A C12A C13A | 1.11
38 | U7C U8C U10G U11A C12A C13U | 1.25
39 | U7C U8C U10G U11A C12A C13G | 1.12
40 | U7C U8C U10G U11C C12U | 1.22
41 | U7C U8C U10G U11C C12G | 1.4
42 | U7C U8C U10G U11C C12A | 1.41

Row | Variant | aptazyme ON/OFF ratio
43 | U7C U8C G9U U11A C12G C13A | 1.07
44 | U7C U8C G9U U11A C12G C13U | 1.13
45 | U7C U8C G9U U11A C12G C13G | 1.16
46 | U7C U8C U10C C13G | 1.24
47 | U7C U8C U10C C13U | 2.08
48 | U7C U8C U10C C13A | 1.24
49 | U7C U8C U10C U11C C12A C13G | 1.24
50 | U7C U8C U10C U11C C12A C13A | 1.34
51 | U7C U8C U10C U11C C12A C13U | 1.24
52 | U7C U8C G9U U11C C12U C13A | 1.03
53 | U7C U8C G9U U11C C12U C13U | 1.02
54 | U7C U8C G9U U11C C12U C13G | 1.05
55 | U7C U8C U10G C12A C13G | 1.08
56 | U7C U8C U10G C12A C13A | 1.1
57 | U7C U8C U10G C12A C13U | 1.12
58 | U7C U8C U10A U11G | 1.37
59 | U7C U8C U10A U11A | 1.63
60 | U7C U8C U10A U11C | 1.03
61 | U7C U8C U10C U11G C12U C13U | 1.3
62 | U7C U8C U10C U11G C12U C13G | 1.23
63 | U7C U8C U10C U11G C12U C13A | 1.28

Row | Variant | aptazyme ON/OFF ratio
64 | U7C U8C U10A U11C C13A | 1.07
65 | U7C U8C U10A U11C C13G | 1.1
66 | U7C U8C U10A U11C C13U | 1.03
67 | U7C U8C G9U U10G U11C C13U | 1.21
68 | U7C U8C G9U U10G U11C C13A | 1.29
69 | U7C U8C G9U U10G U11C C13G | 1.06
70 | U7C U8C U10A U11C C12U | 1.05
71 | U7C U8C U10A U11C C12A | 1.29
72 | U7C U8C U10A U11C C12G | 1.26
73 | U7C U8C U10C U11A C12G C13G | 1.29
74 | U7C U8C U10C U11A C12G C13U | 1.2
75 | U7C U8C U10C U11A C12G C13A | 1.15
76 | U7C U8C U10C C12U | 1.36
77 | U7C U8C U10C C12G | 1.16
78 | U7C U8C U10C C12A | 1.39
79 | U7C U8C U10A U11A C12U C13G | 1.28
80 | U7C U8C U10A U11A C12U C13A | 1.13
81 | U7C U8C U10A U11A C12U C13U | 1.16
82 | U7C U8C G9U U10G U11A C12U C13U | 1.21
83 | U7C U8C G9U U10G U11A C12U C13G | 1.12
84 | U7C U8C G9U U10G U11A C12U C13A | 1.1
